Data: the RNAGym collection of RNA variant scans (doi:10.7554/elife.90254)

B1: LINE1-full (parent)
chain: UACGUAGGUGGUUUUCCCCUGAUAGUGCUAAGGGGGCCUGGAAGUUUGGACUGGGCAGAGCUCAACACAGCGUGGCAAAGUGGCUGUGGCUAGACUGCCUCUCUGGAUUCCUCGUCACUCAGCAGGGCAUCUCUGAGAGAAAUGCC

Variants of: B1
Assay: self-cleavage, relative activity (ratio to wild type); higher = more cleavage; in vitro, sequencing; the parent is a self-cleaving ribozyme

Variant	self-cleavage
U15C A136C	1.99
U45C U130A	1.66
G55A A64G	0
C66U A78G	0.04
U15C A24U	1.08
U26A U62C	0.04
C3U U96A	0.07
A57G G114A	0.84
C19A C128U	1.08
U108A	1.24
G60A C99A	0.05
C68U U85C	0.03
C38U U130C	1.46
U91C A117C	1.24
U26C U81A	1.68
G72U U73C	0.9
G60A A65U	0.05
U9A	1.05
C51U U85C	0.19
U46A A77U	1.24
U46G U112C	1.48
A6U A57U	0.08
A30G A94U	0.64
U5C C95G	0.17

Variant	self-cleavage
U85C U87C	0.04
U14A G48A	1.09
C19U C95U	0.43
U91C U109C	0.61
G35U U104A	1.31
G83A U132A	1.09
U14C G48U	1.15
C19A G72A	1.07
A69U U96C	0.03
U39C A140U	1.22
C3U U46C	0.92
G32U U85C	0.17
C38U A117G	2.38
U45C A94G	0.3
U12A U100C	1.64
G25A A136G	1.58
U39A A57G	0.87
U13G C145U	1.16
C3U U9C	1.53
A117G G144A	0.73
U104A U130C	1.51
G122U A136U	1.31
U81C A138U	1.22
A43U U85C	0.16

Variant	self-cleavage
U73A U143A	1.75
A50G U132G	1.15
U39C A121U	1.04
C95A U112C	0.05
U91A A92G	0.16
U26C U39G	0.65
U29C U62A	0.03
A67U A138G	0.13
G48A A92G	0.09
C28U C101U	1.06
G44A A64U	0.4
U9A A140U	1.08
U104A G122C	1.48
A138U A140G	1.2
C3U A78G	0.37
C19U A124U	0.76
A24G G53A	1.8
A31G A43U	0.89
U14A U47A	0.81
A78U U130C	2.68
G25C U119C	1.58
U47C A67U	0.2
U62A G72A	0.01
G55U U102C	0.06

Variant	self-cleavage
U46A A129G	1.16
A43U U100C	1.75
U109A A129U	2.02
U102A G125A	1.51
U130A U134C	1.84
A24G A140U	0.9
A59G G82A	0.02
U20C C56U	0.11
G60A U132C	0.03
C123U G135C	1.97
A67G C101U	0.75
A65U U109C	0.18
G44A C90G	0.01
U81C G139A	1.63
U1C A50G	0.64
U23C G72U	0
C71A U132C	0.15
A24G U47A	1.44
U23C U85A	0.07
U47A	1.22
A43C U112C	2.1
G8C U45C	2.04
U23A A65U	0.53
U39A C120U	1.56

Variant	self-cleavage
G93A A129G	0.08
U5C C116A	1.29
U14A A57U	0.03
U39G C123U	0
U26C C120U	1.17
U96C A107U	0.17
G60A U91C	0
U29A U87G	0.12
C28U A138U	0.9
A107U A117C	2.32
U104C U134G	0.75
A65C A136G	0
A31U A136G	0.79
A2U A79U	1.37
A42U A140G	1.29
U20G G34A	0.69
A65G G88A	0.02
U20C U29C	1.27
U26A A77U	0.78
C63U A69G	0.17
C113U A121U	1.53
A22U A107U	1.96
U96A G105A	0.04
A67U U112C	0.09

Variant	self-cleavage
G34A A79U	2.33
G32A U102C	1.62
U9G A124U	1.12
U1C A22G	0.84
A107C U108A	1.36
G74C U102C	0.88
A2G U85C	0.48
U9C G82A	2.23
C71G A77G	0.4
U62A U130A	0.03
A24U G126A	1.34
U85C U100C	0.28
U39G A64G	0.09
U14C A138U	0.98
U15C U96A	0.1
G34A A121G	1.16
U46C A124U	1.25
U45C G139C	1.63
A6C	1.08
A24U A79G	0.97
U13C A65U	0.2
U39G U47C	0.52
A50G G53U	0
U45C A65C	0.08

Variant	self-cleavage
U46C U81A	2.18
U15A A77C	0.7
C3U G60U	0.07
C56A C120U	0.17
A79G U104C	1.22
U81G U115A	1.28
G34A G144A	1.31
U81A C123U	1.01
G54A U104C	0.44
U5C U9A	0.74
G7U A94G	0.36
U20C U102A	1.21
U5C U119A	0.98
U96C C99U	0.1
G106A U119C	1.58
C98A U108C	0.4
U1C U47A	0.6
A42G A94G	0.26
A65G U134G	0.03
C3U U81C	0.79
A77U U130G	1.86
A42G A124C	2.96
A2C A142G	1.78
